Substitutions are numbered along the chain they refer to.

T1: TPP-5521, recombinant IL3Ra aa20-305 (extracellular domain of IL3Ra, R&D Systems) (murine (printed under Origin in Table …, UniProt P26951 20-305))
T1 construct: Bought antigen; also called soluble IL3Ralpha; IL3Ra protein
T1 sequence: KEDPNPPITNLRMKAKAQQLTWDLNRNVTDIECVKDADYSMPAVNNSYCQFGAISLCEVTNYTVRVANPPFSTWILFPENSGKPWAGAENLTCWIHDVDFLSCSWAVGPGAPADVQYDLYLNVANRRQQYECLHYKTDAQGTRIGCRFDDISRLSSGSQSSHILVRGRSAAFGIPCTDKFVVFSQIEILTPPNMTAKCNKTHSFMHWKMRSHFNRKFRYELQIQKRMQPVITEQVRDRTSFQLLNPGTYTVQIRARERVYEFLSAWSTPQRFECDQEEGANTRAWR

T2: IL-3Rα, CD123 (interleukin 3 receptor subunit alpha) as expressed on CD123-positive human cancer cell lines … (human, UniProt P26951 20-378)
T2 construct: Target of the flow cytometry on the human cell line MOLM-13 (CD123-positive); NCBI Gene ID 3563; also called IL3RA; IL3R-alpha
T2 sequence: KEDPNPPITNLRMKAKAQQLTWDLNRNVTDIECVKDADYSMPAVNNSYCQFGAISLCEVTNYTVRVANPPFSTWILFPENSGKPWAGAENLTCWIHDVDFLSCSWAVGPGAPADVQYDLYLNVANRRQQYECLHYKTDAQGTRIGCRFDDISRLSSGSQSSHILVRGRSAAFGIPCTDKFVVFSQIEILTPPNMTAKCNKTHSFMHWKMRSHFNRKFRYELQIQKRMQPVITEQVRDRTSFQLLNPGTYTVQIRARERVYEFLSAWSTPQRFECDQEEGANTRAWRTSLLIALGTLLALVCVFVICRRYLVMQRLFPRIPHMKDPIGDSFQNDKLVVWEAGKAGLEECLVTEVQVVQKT

B1: TPP-8988 (antibody, human IgG1, kappa, V domains shown)
VH: EVQLLESGGGLVQPGGSLRLSCAVSDYSITSGYYWNWIRQAPGKKLEWMGYISYDGSNNYNPSLKNGRITISRDTSKNTFYLQMNSLRAEDTAVYYCARGEGFYFDSWGQGTLVTVSS
VL: EIVLTQSPGTLSLSPGERATLSCKSSQSLFFGSTQKNYLAWYQQKPGQAPRLLIYWASTRESGIPDRFSGSGSGTDFTLTISRLEPEDFAVYYCQQYYNYPWTFGQGTKLEIKR
notes: Humanized variant of 12F1 (IGKV3-20 / IGHV3-66 frameworks), human IgG1 kappa
B2: TPP-8987 (antibody, human IgG1, kappa, V domains shown)
VH: QVQLVQSGAEVKKPGSSVKVSCKASGGTFSDYYMKWVRQAPGQGLEWMGDIIPSNGATFYNQKFKGQVTITADESTSTAYMELSSLRSEDTAVYYCARSHLLRASWFAYWGQGTLVTVSS
VL: DIVMTQSPDSLAVSLGERATINCESSQSVLNSGNQKNYLTWYQQKPGQPPKLLIYWASTRESGVPDRFSGSGSGTDFTLTISSLQAEDVAVYYCQNDYSYPYTFGQGTKLEIKR
notes: Humanized and germlined variant of 7G3, human IgG1 kappa
B3: TPP-9476 (antibody, human IgG1, kappa, V domains shown)
VH: B2 VH with Q67R
VL: B2 VL
notes: as for B2
B4: TPP-6013 (antibody, human IgG1, kappa, V domains shown)
VH: QVQLQESGPGLVKPSQSLSLTCSVTDYSITSGYYWNWIRQFPGNKLEWMGYISYDGSNNYNPSLKNRISITRDTSKNQFFLKLSSVTTEDTATYYCSRGEGFYFDSWGQGTTLTVSS
VL: DIMMSQSPSSLAVSVGEKFTMTCKSSQSLFFGSTQKNYLAWYQQKPGQSPKLLIYWASTRESGVPDRFTGSGSGTDFTLAISSVMPEDLAVYYCQQYYNYPWTFGGGTKLEIKR
notes: Chimeric antibody: murine 12F1 variable domains with human IgG1 kappa constant regions; also called antiCD123-12F1-hIgG1Kappa; chimeric variant of 12F1
B5: TPP-9130 (antibody, human IgG1, kappa, V domains shown)
VH: B1 VH
VL: B1 VL with W56G, T59S, E61A, S62T
B6: TPP-9104 (antibody, human IgG1, kappa, V domains shown)
VH: B1 VH with G32N
VL: B1 VL
B7: TPP-9075 (antibody, human IgG1, kappa, V domains shown)
VH: B1 VH with W35S
VL: B1 VL
B8: TPP-5969 (antibody, human IgG1, kappa, V domains shown)
VH: B2 VH with N61A, K65Q, Q67R
VL: B2 VL with V29L
notes: Humanized version of murine 7G3, human IgG1 kappa; also called HU7G3-4-hIgG1Kappa
B9: TPP-8695 (antibody, human IgG1, kappa, V domains shown)
VH: B2 VH
VL: B2 VL with V29L
notes: also called Variant4-hIgG1kappa
B10: TPP-8617 (antibody, human IgG1, kappa, V domains shown)
VH: EVQLVQSGAEVKKPGESLKISCKGSDYSITSGYYWNWVRQMPGKGLEWMGYISYDGSNNYNPSLKNGQVTISADKSISTAYLQWSSLKASDTAMYYCSRGEGFYFDSWGQGTLVTVSS
VL: B4 VL
notes: Humanized 12F1 graft on IGKV4-1 / IGHV5-51; also called Hum-TPP6013-17
B11: TPP-9129 (antibody, human IgG1, kappa, V domains shown)
VH: B1 VH
VL: EIVLTQSPGTLSLSPGERATLSCRASQSVSSSYLAWYQQKPGQAPRLLIYWASTRESGIPDRFSGSGSGTDFTLTISRLEPEDFAVYYCQQYYNYPWTFGQGTKLEIKR
B12: TPP-9078 (antibody, human IgG1, kappa, V domains shown)
VH: B1 VH with M49V
VL: B1 VL

The target in one experiment is T1, TPP-5521, recombinant IL3Ra aa20-305 …. Description: SPR (Biacore T200), antibody captured by anti-human Fc, IL3Ra ECD as analyte, 1:1 Langmuir fit, 25 °C. As to the method: Surface plasmon resonance experiments for quantitative binding analysis were carried out using a Biacore T200 instrument (GE Healthcare Biacore, Inc.). Here the antibodies to be examined were fixed with the aid of an anti-human Fc antibody (“Human Antibody Capture Kit”, BR-1008-39, GE Healthcare Biacore, Inc.) amine-coupled to the sensor chip surface Amine coupling was performed according to the manufacturer's instructions using 1-ethyl-3-(3-dimethylaminopropyl)carbodiimide hydrochloride (EDC), N-hydroxysuccinimide (NHS) and ethanolamine HCl pH 8.5 (“Amine Coupling Kit” BR-1000-50, GE Healthcare Biacore, Inc.). For the analyses, Series S sensor chips CMS (GE Healthcare Biacore, Inc.) were used with the mobile buffer HBS-EP+ (10 mM HEPES pH 7.4, 150 mM NaCl, 3 mM EDTA, 0.05% Surfactant P20). All experimental steps were carried out at 25° C. After fixation of the anti-CD123 antibodies to be examined, injections of the extracellular domain of IL3Ra (analyte, R&D Systems) at concentrations of 100 nM were carried out, and after each antigen injection the sensor surface was regenerated with glycine HCl pH 2.0. Prior to another analyte injection, antibodies were in each case fixed as above, under identical conditions. For all measurements, an upstream flow cell only containing immobilized amine-coupled anti-human Fc antibody was used as reference cell. Evaluation of the sensorgrams obtained was, after double referencing (subtraction of the reference flow cell signal and a buffer injection), carried out by a global fit based on a 1:1 Langmuir binding model with the aid of the Biacore T200 evaluation software (GE Healthcare Biacore, Inc.).
One may read the Kd as the constant that tells how readily two partners part at equilibrium. As to B1, the Kd was 0.33 nM.
Still for that read-out and setting: the value for B2 was 1.24 nM; that for B3 was 7.2 nM.
On the same count and under the same terms, the value for B4 was 0.8 nM.

The target in the next experiment is T2, IL-3Rα, CD123 (interleukin 3 receptor …). Description: flow cytometry on MOLM-13 cells, anti-kappa-FITC secondary antibody. As to the method: (§1) Binding of the anti-CD123 antibodies was examined by flow cytometry using human haematological cell line MOLM-13. To this end, the cells (5×10⁵ cells/well) were incubated in FACS buffer (PBS without Ca/Mg, 3% FCS, Biochrom) with 10 μg/ml primary antibody solution (start concentration) on ice for 30-45 min protected from light. A dose activity curve (1:5 dilution) was plotted. After the incubation, 200 μl of ice-cold FACS buffer were added using a pipette, and the cell suspension was centrifuged at 4° C. 400 g for 4 min. The cell pellet was washed with 300 μl of ice-cold FACS buffer and the pellet obtained was then resuspended in 100 μl FACS buffer and incubated again with secondary antibody (monoclonal anti-kappa light chains-FITC antibody, Sigma, No. SAB4700605) in a 1:10 dilution on ice for 30 min. The cells were then washed with ice-cold FACS buffer and adjusted to a cell concentration of 0.5×10⁶ cell/m1 prior to flow cytometry using a Guava flow cytometer (Millipore). Propidium iodide (final concentration 1 μg/ml) was used for live staining. The results were shown as EC₅₀ values determined based on the dose response curve and efficacy compared to maximal binding.
Background: Flow cytometry measures light scatter and fluorescence of single cells or particles in a stream.
By EC50 is commonly meant the midpoint of the concentration-response curve. A high value points to lower potency in that assay. For the molecule B1, the EC50 stood at 1.9 nM and the “Efficacy [%] (compared to maximal binding)” value (“Efficacy [%]” for short) stood at 100%.
On to B5, for which the EC50 was found to be 3.01 nM and the “Efficacy [%]” value was determined as 100%.
Consider B6, for which the midpoint of the response, the EC50, lay at 25.3 nM and the “Efficacy [%]” value was 83%.
The like results for B7 were, in that order, 5.37 nM and 100%.
The like results for B8 were, in that order, 5.3 nM and 34%.
The like results for B2 were, in that order, 3.2 nM and 100%.
Consider B3, for which it took 2.8 nM to reach a half-maximal effect (EC50) and the “Efficacy [%]” value worked out at 100%.
The corresponding values for B9 are 1.12 nM and 36%.
For B4, the EC50 came out at 2 nM and the “Efficacy [%]” value was found to be 100%.
The like results for B10 were, in that order, 1.4 nM and 100%.

The next experiment shares this target. Description: flow cytometry on MOLM-13 cells. The method, then:
as §1
Turning to B11, the binding result was “no binding (tested: 10 µg/ml (start concentration))”.
As to B12, the binding result was “no binding (tested: 10 µg/ml (start concentration))”.

The record behind these values is patent US20190330357A1 (Bayer, published 2019).
